These are literature values, as cited in paper PMC7590900.

As usually defined, the Kd is a measure of binding affinity in units of concentration.

The series addresses CXCR7 (Homo sapiens) (UniProt P25106).
UniProt P25106, sequence (P25106 whole entry): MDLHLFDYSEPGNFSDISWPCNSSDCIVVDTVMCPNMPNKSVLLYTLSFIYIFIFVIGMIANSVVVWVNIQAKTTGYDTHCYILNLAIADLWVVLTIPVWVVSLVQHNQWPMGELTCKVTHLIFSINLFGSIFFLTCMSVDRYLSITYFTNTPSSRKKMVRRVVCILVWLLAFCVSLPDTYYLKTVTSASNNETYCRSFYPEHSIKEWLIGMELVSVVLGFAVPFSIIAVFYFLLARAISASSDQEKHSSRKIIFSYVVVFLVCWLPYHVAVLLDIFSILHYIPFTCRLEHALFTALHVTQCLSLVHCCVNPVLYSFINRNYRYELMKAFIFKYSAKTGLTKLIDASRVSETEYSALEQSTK

For CXCL11 (from UniProt O14625), the Kd was 3.5 nM.
